# Where “and” joins values, the source holds several entries; their conditions need not be identical. Equal values may be shown once.
# B1: peroxiredoxin 5 (enzyme, Bos taurus (endogenous in bull sperm), UniProt Q9BGI1 58-219, looked up)
# chain: MAPIKVGDAIPSVEVFEKEPGNKVNLAELFKGKKGVLFGLPGAFTPGCSKTHLPGFVEQADALKAKGIQVVACLTVNDVFVTEEWARAHKAEGKVRLLADPSGTFGKETDLLLDDSLLFLFGNHRLKRFSMVIEDGIVKSLNVEPDGTGLTCSLAPNILSQL
# notes: peroxiredoxin 5 (PRDX5) from Bos taurus, endogenous in bull sperm; runs as a single 17.5 kDa band in standard SDS-PAGE; The oligomers are disulfide-linked, as they appear only in non-reducing SDS-PAGE; also called PRDX5; source: endogenous, bull sperm lysate (native protein extraction; fresh or cryopreserved sperm)
# B2: peroxiredoxin 6 (enzyme, bovine (endogenous in bull sperm), UniProt O77834 1-224, looked up)
# chain: MPGGLLLGDEAPNFEANTTIGRIRFHDYLGDSWGILFSHPRDFTPVCTTELGRAAKLAPEFAKRNVKMIALSIDSVEDHLAWSKDINAYNGEEPTEKLPFPIIDDKNRDLAIQLGMLDPAEKDEKGMPVTARVVFIFGPDKKLKLSILYPATTGRNFDEILRVIISLQLTAEKRVATPVDWKNGDSVMVLPTIPEEEAKKLFPKGVFTKELPSGKKYLRYTPQP
# notes: peroxiredoxin 6 (PRDX6), bovine, endogenous in bull sperm; runs as a single 25 kDa band in standard SDS-PAGE; The oligomers are disulfide-linked, as they appear only in non-reducing SDS-PAGE; also called PRDX6; source: endogenous, bull sperm lysate (native protein extraction; fresh or cryopreserved sperm)
# Target: the molecule itself
# Experiment: non-reducing SDS-PAGE with Western blot; native protein extracts of fresh or cryopreserved bull sperm, 30 ug protein, Laemmli buffer with 1.275% SDS and without 2-mercaptoethanol, 12% gels; compared with standard reducing SDS-PAGE; oligomer bands stronger after cryopreservation
protein,measurement,value
B1,stoichiometry N,6
B2,stoichiometry N,2 and 6

# Reference: paper PMC11714857, “PRDX5 and PRDX6 translocation and oligomerization in bull sperm: a response to cryopreservation-induced oxidative stress” (Cell Communication and Signaling : CCS, 2025)
